Laboratory results: the supplement of paper PMC7125110
± gives the standard error. Fewer inactive variants are shown than the library holds.

B1: glmS ribozyme (parent)
chain: AUAAAAGCGCCAGAACUACAGAAAUGUAGUUGACGAGGAGGAGGUUUAUCGAAUUUUCGGCGGAUGCCUCCAAA

Columns and labels:
Conditions in all cases: with glucosamine-6-phosphate
glucosamine-6-phosphate [1] = variants of: B1; experiment: self-cleavage kobs at 40 uM GlcN6P; higher = faster cleavage; RNA array
How it was run: (§1)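 Barcoded glmS ribozyme variants on sequenced MiSeq chips were transcribed in situ by E. coli RNA polymerase and tracked through a hybridised Cy3 probe at 37 °C. Glucosamine-6-phosphate (40 μM to 10 mM) in HEPES/KCl/Mg(OAc)2 buffer was flowed in, and tiles were imaged over ~14 h. Signals were normalised to baseline and to non-cleaving reference variants; per-tile medians were fit to one- or two-exponential decays to give kobs. kcat and KM came from weighted Michaelis–Menten fits across concentrations.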

glucosamine-6-phosphate [2] = variants of: B1; experiment: self-cleavage kobs at 10000 uM GlcN6P; higher = faster cleavage; RNA array
How it was run: as §1

glucosamine-6-phosphate [3] = variants of: B1; experiment: self-cleavage kobs at 640 uM GlcN6P; higher = faster cleavage; RNA array
How it was run: as §1

glucosamine-6-phosphate [4] = variants of: B1; experiment: self-cleavage kobs at 2500 uM GlcN6P; higher = faster cleavage; RNA array
How it was run: as §1

glucosamine-6-phosphate [5] = variants of: B1; experiment: self-cleavage kobs at 160 uM GlcN6P; higher = faster cleavage; RNA array
How it was run: as §1

Row | Variant | self-cleavage kobs at 40 uM GlcN6P (glucosamine-6-phosphate [1]) [s⁻¹] | self-cleavage kobs at 10000 uM GlcN6P (glucosamine-6-phosphate [2]) [s⁻¹] | self-cleavage kobs at 640 uM GlcN6P (glucosamine-6-phosphate [3]) [s⁻¹] | self-cleavage kobs at 2500 uM GlcN6P (glucosamine-6-phosphate [4]) [s⁻¹] | self-cleavage kobs at 160 uM GlcN6P (glucosamine-6-phosphate [5]) [s⁻¹]
1 | C10G G32U A53G C58G G60C | < 1e-05 | 0.000266 ± 4.4e-05 | – | – | –
2 | G40A U54A | 0.000696 ± 0.00017 | – | 0.000502 ± 0.00015 | 0.00212 ± 0.00077 | –
3 | U45G G62A C70G C71G | < 1e-05 | – | – | – | –
4 | A52U C58U | < 1e-05 | < 1e-05 | < 1e-05 | < 1e-05 | < 1e-05
5 | G9C U47G | < 1e-05 | < 1e-05 | – | – | –
6 | G40A U55G C68G | < 1e-05 | – | – | – | –
7 | A15U A33C A36C G37U G40C C58U | < 1e-05 | < 1e-05 | – | – | –
8 | C8A A36C | < 1e-05 | < 1e-05 | – | < 1e-05 | < 1e-05
9 | G38U A42C | < 1e-05 | < 1e-05 | – | – | < 1e-05
10 | C34G U54A | < 1e-05 | < 1e-05 | < 1e-05 | < 1e-05 | < 1e-05
11 | C8A U30A A48G | < 1e-05 | < 1e-05 | – | – | –
12 | G7C U47C A64U | < 1e-05 | < 1e-05 | – | – | –
13 | C10A A36U C68G | 8.85e-05 ± 2.9e-05 | 6.62e-05 ± 2.1e-05 | – | – | –
14 | G32A A36C A42G C70G | < 1e-05 | < 1e-05 | – | – | –
15 | G13A U46G G59U C70U | < 1e-05 | – | – | < 1e-05 | –
16 | A36C G41A C68A | < 1e-05 | < 1e-05 | < 1e-05 | < 1e-05 | –
17 | C11U A36G C50G | 8.31e-05 ± 2.8e-05 | 4.94e-05 ± 1.5e-05 | 0.000352 ± 0.00014 | – | –
18 | A39U G43A C67G | 0.000153 ± 4.5e-05 | 0.00313 ± 0.00085 | 0.000465 ± 0.00019 | 0.000131 ± 6.2e-05 | 9.45e-05 ± 3.1e-05
19 | G35U U45A G63C C71G | < 1e-05 | < 1e-05 | – | < 1e-05 | –
20 | A6U G13C G63U A64G | < 1e-05 | – | – | – | –
21 | A48U A52U C67A | < 1e-05 | < 1e-05 | – | – | –
22 | G7U A33G | < 1e-05 | – | < 1e-05 | < 1e-05 | < 1e-05

Row | Variant | self-cleavage kobs at 40 uM GlcN6P (glucosamine-6-phosphate [1]) [s⁻¹] | self-cleavage kobs at 10000 uM GlcN6P (glucosamine-6-phosphate [2]) [s⁻¹] | self-cleavage kobs at 640 uM GlcN6P (glucosamine-6-phosphate [3]) [s⁻¹] | self-cleavage kobs at 2500 uM GlcN6P (glucosamine-6-phosphate [4]) [s⁻¹] | self-cleavage kobs at 160 uM GlcN6P (glucosamine-6-phosphate [5]) [s⁻¹]
23 | C8A A15C | < 1e-05 | – | < 1e-05 | < 1e-05 | < 1e-05
24 | G35C G41U G63U | < 1e-05 | – | – | – | –
25 | U30G A52C | < 1e-05 | – | < 1e-05 | < 1e-05 | < 1e-05
26 | G41U G63A | < 1e-05 | < 1e-05 | < 1e-05 | < 1e-05 | –
27 | G13C G51A | < 1e-05 | < 1e-05 | – | < 1e-05 | –
28 | G43U C71G | < 1e-05 | < 1e-05 | < 1e-05 | – | < 1e-05
29 | A6U G13C | < 1e-05 | – | < 1e-05 | < 1e-05 | –
30 | G37C A52U A53U | < 1e-05 | – | – | – | –
31 | A53U C67G | 3.3e-05 ± 8.7e-06 | 0.00224 ± 0.00024 | 0.000519 ± 0.00012 | 0.000628 ± 0.0001 | 7.53e-05 ± 2e-05
32 | G9A G40C | < 1e-05 | – | < 1e-05 | – | < 1e-05
33 | C10U G32A G51C C67U C71U | < 1e-05 | – | – | < 1e-05 | –
34 | A53U U69C | 0.000317 ± 6.8e-05 | 0.00288 ± 0.00074 | 0.00104 ± 0.0003 | – | 0.000141 ± 5.3e-05
35 | U54G C67A | 0.000326 ± 7.1e-05 | 0.00623 ± 0.0012 | 0.000916 ± 0.00018 | 0.00208 ± 0.00067 | 0.000481 ± 9.8e-05
36 | G29A A42C | < 1e-05 | < 1e-05 | < 1e-05 | – | < 1e-05
37 | C8G A33U | < 1e-05 | < 1e-05 | < 1e-05 | < 1e-05 | < 1e-05
38 | G38U U56G C61A C68G | 0.000276 ± 7.7e-05 | 6.19e-05 ± 2.1e-05 | – | – | –
39 | C16A A42U | < 1e-05 | – | – | – | < 1e-05
40 | C8A G40A | < 1e-05 | – | < 1e-05 | < 1e-05 | –
41 | C10G C61U | < 1e-05 | < 1e-05 | < 1e-05 | – | < 1e-05
42 | C10G G40A | < 1e-05 | < 1e-05 | < 1e-05 | < 1e-05 | –
43 | A6G G9C | < 1e-05 | < 1e-05 | – | – | < 1e-05
